According to US20180250415A1 (Scripps Research, published 2018):
Each block holds one binder with its values, some of them ahead of it.

Legend:
CD138 = molecular target: T1, CD138 (human, UniProt P18827 23-310); test: flow cytometry on H929 and U266 (CD138+) cells, detected with 647-conjugated F(ab')2 donkey anti-human Fc [CONT.]
T1 construct: whole, on cells; also called CD138 on H929 and U266 cells
T1 sequence (looked up): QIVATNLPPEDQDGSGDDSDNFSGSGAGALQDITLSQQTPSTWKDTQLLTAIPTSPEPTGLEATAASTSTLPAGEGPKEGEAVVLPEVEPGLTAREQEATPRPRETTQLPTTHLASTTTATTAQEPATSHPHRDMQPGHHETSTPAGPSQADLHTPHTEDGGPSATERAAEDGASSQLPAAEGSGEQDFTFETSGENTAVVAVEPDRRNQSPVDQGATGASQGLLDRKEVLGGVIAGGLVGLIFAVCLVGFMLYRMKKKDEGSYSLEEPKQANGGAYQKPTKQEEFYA
Protocol: (§1) The binding activities of these DVDs are also tested against target expressing cells. […] The cells are washed with 200 μL flow cytometry buffer (PBS, 2% (w/v) FBS, pH 7.4), are incubated with DVD1 or DVD2 for 30 min on ice, are washed with 200 μL flow cytometry buffer, and are stained with 647 conjugated polyclonal (Fab′)₂ donkey anti-human Fc (Jackson ImmunoResearch Laboratories) for 20 min on ice. After washing twice with 200 μL ice-cold flow cytometry buffer, the cells are analyzed using a Canto II Flow Cytometer (Becton-Dickinson). Data were analyzed using FlowJo software (Tree Star).

HER2 = molecular target: T2, HER2 (human, UniProt P04626 23-1255); test: flow cytometry on SK-BR-3 (SKBR3, HER2+) cells, detected with 647-conjugated F(ab')2 donkey anti-human Fc
T2 construct: whole, on cells; also called ERBB2; HER2 on SK-BR-3 (SKBR3) cells
Protocol: as §1

CD79b = molecular target: T3, CD79b (UniProt P40259 29-229, limits assumed); test: flow cytometry on Ramos (CD79b+) cells, detected with 647-conjugated F(ab')2 donkey anti-human Fc [CONT.]
T3 construct: whole, on cells; also called CD79b on Ramos cells
T3 sequence (looked up): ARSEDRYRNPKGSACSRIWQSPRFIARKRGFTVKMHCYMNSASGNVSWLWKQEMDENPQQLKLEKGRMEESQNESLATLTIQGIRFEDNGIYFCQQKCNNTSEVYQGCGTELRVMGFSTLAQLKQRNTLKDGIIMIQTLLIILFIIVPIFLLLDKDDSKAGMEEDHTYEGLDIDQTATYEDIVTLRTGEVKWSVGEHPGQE
Protocol: as §1

binding result (CD138): binds
B1: CD138-h38C2-DVD1 immunoglobulin (antibody, human IgG1, kappa)
light: DIQMTQSTSSLSASLGDRVTISCSASQGINNYLNWYQQKPDGTVELLIYYTSTLQSGVPSRFSGSGSGTDYSLTISNLEPEDIGTYYCQQYSKLPRTFGGGTKLEIKASTKGPELQMTQSPSSLSASVGDRVTITCRSSQSLLHTYGSPYLNWYLQKPGQSPKLLIYKVSNRFSGVPSRFSGSGSGTDFTLTISSLQPEDFAVYFCSQGTHLPYTFGGGTKVEIKRTVAAPSVFIFPPSDEQLKSGTASVVCLLNNFYPREAKVQWKVDNALQSGNSQESVTEQDSKDSTYSLSSTLTLSKADYEKHKVYACEVTHQGLSSPVTKSFNRGEC
heavy: not shown
notes: also called CD138 DVD; anti-CD138 DVD1

binding result (HER2): no binding | binding result (CD138): no binding | binding result (CD79b): no binding
B2: h38C2 IgG1 (antibody, V domains shown)
VH: EVQLVESGGGLVQPGGSLRLSCAASGFTFSNYWMSWVRQSPEKGLEWVSEIRLRSDNYATHYAESVKGRFTISRDNSKNTLYLQMNSLRAEDTGIYYCKTYFYSFSYWGQGTLVTVSS
VL: ELQMTQSPSSLSASVGDRVTITCRSSQSLLHTYGSPYLNWYLQKPGQSPKLLIYKVSNRFSGVPSRFSGSGSGTDFTLTISSLQPEDFAVYFCSQGTHLPYTFGGGTKVEIK
notes: also called parent h38C2 IgG1; unconjugated humanized 38C2 antibody
